Measurements published in the nanobody polyreactivity screen of Harvey et al. (2022).

Test: yeast display, Sf9 membrane polyspecificity reagent, FACS + sequencing; frameworks hold sequencing errors
In short: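 In a synthetic yeast display library (Saccharomyces cerevisiae BJ5465), nanobody expression was induced with galactose for 36–48 hours. FACS gates were set low and high (top ~1%) using anti-HA fluorescence for expression and streptavidin fluorescence for binding of the Sf9 membrane reagent. Each polyreactivity label is drawn from the gate of origin.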

| Sequence | polyreactivity (PSR sort gate) |
| --- | --- |
| QVQLVESGGGLVQAGGSLRLSCAASGSTFVRYAMGWYRQAPGKERELVAGISSGDRTYYADSVKGRFTISRDNAKNTVYLQMNSLKPEDTAVYYCNARPVYLLEGYYWGQGTQVTVSS | low polyreactivity |
| QVQLVESGGGLVQAGGSLRLSCAASGIIFRYAMGWYRQAPGKERELVARITVGSTYYADSVKGRFTISRDNAKNTVYLQMNSLKPEDTAVYYCAARVQHYLATDDYWGQGTQVTVSS | low polyreactivity |
| QVQLVESGGGLVQAGCILRLSCASSGIIFSYAMGWYRQAPGKESELVAAISGRDGSTYYADSVKGRFTISRDNAKNTVYLQMNSLKPEDTAVYYCAKRISYLPVEMDYWGHGTQVTVSS | low polyreactivity |
| QVQLVESGGGLVQAGGSLRLSCAASGINFRGYAMGWYRQAPGKERELVASITNTDSTYYADSVKGRFTISRDNAKNTVYLQMNSLKPEDTAVYYCAARRGRKYGYWGQGTQVTVSS | high polyreactivity |
| QVQLVESGGGLVQAGGSLRLSCAASGRIFYPYAMGWYRQAPGKERELVAAIRISGGSTYYADSVKGRFTISRDNAKNTVYLQMISLNPEDTAVYYCNASARLQPAYSWFYYWGQGTQVTVSS | high polyreactivity |
| QVQLVESGGGLVQAGGSLRLSCAASGSIFSRNAMGWYRQAPGKEREFVARISWSSTSTNYADSVKGRFTISRDNAKNTVYLQMISLKPEVTAVDYCSADFRGDRRFDYWGQGTQVTVSS | low polyreactivity |
| QVQLVESGGGLVQAGGSLRLSCAASGLIFDSYAMGWYRQAPGKERELVAAITYTGGSTYYADSVKGRFTISRDNAKNTVYLQMNSLKPEDTAVYYCAAVTRYAGRIRYGYWGQGTQVTVSS | high polyreactivity |
| QVQLVESGGGLVQAGGSLRLSCAASGFTLYSYAMGWYRQAPGKERELVAAIRRRGASTYYADSVKGRFTISRDNAKNTVYLQMNSLKPEDTAVYYCAADAKYPDDDYWGQGTQVTVSS | high polyreactivity |
| QVQLVESGGGLVQAGGSLRLSCAASGFILTSNAMGWYRQAPGKERELVAAITRNGARTYYADSVKGRFTISRDNAKNTVYLQMNSLKPEDTAVYYCAAETVSYWWWGQDIPYYYWGQGTQVTVSS | high polyreactivity |
| QVQLVESGGGLVQAGGSLGLSCAASGRTFSQYAMGWYRQAPGKERELVAAISWSGGYTYYADSVKGRFTISRDNAKNTVYLQMNSLKPEDTAVYYCAAVGKGSARSSYPVLYDYWGQGTQVTVSS | low polyreactivity |
| QVQHVESGGRLVQAGGSLRLSCAASGSNWIYAMGWYRQAPGKERELVAAISVSGDRTYYADSVKGRFTISRDNAKNTVYLQMNSLKPEDTAVYYSATPPYPGRDYWGQGTEVTVSS | high polyreactivity |
| QVQLVESGGGLVQAGGSLRLSCAASGRIFDLNAMGWYRQAPGKERELVAAISYSGDRTYYADSVKGRFTISRDNAKNTVYLQMNSLKPEDTAVYYCNVRKTWYGYSVTGRYDYWGQGTQVTVSS | low polyreactivity |
| QVQLVESGGGLVQAGGSLRLSCAASGRTFPGNAMGWYRQAPGKERELVATISSGGTTNYADSVKGRFTISRDNAKTTVYLQMNSLKPEDTAVYYCATDTYHHKADYEYWGKGTQVTVSS | low polyreactivity |
| QVQLEDSGGGLVQAGGSLRLSCAASGSIFILNTMGWYREAPGKERELVAGISYSGSTYYADSVKGRFTISRDNAKNTVYLQMNSLKPEDTAVYYCAADYGAAWYNDGYYYWGQGTQVTVSS | low polyreactivity |
| QVQLVESGGGLVQAGGSLRLSCAASGSIFKSYAMGWYRQAPGKERELVAAISGSGGRTYYADSVKGRFTISRDNAKNTAYLQMNSLKPEDTAVYYCNALASIRTHTGYAYSPPYDYWGQGTQVTVSS | high polyreactivity |
| QVQLVESGGGLVQAGGSLRLSCASSGGTFPYYAMGWYRQAPGKERELVAAINYSCGSTYYADSVKGRFTISRDNAQYTVYLQMTSLKPEDTAVFYCAARYQFYRYDSTYSYWGQGTQVTVSS | high polyreactivity |

| Sequence | polyreactivity (PSR sort gate) |
| --- | --- |
| QVQLEESGGGLVQAGGSLRLSCAASGFTFKRYAMGSYRQAPGKEREFVAAITRGGGSTYYADSVKGRFTISRDNAKNSVYLQMNSLKPEDTAVYYCAADPQYTIRDYWGQGTQVTVSS | high polyreactivity |
| QVQLVESGGGLVQAGGSLRLSCAASGFTFGTYAMGWYRQAPGKERELVAGITSGDGTYYADSVKGRFTISRDNAKNTVYLQMNSLKPEDTAVYYCAVVHYQQYSWRVYFYPYDYWGQGTQVTVSS | high polyreactivity |
| QVQLVESGGGLVQAGGSLRLSCAASGITFGAYAMGWYRQAPGKERELVAVITRGADTYYADSVKGRFTISRDNAKNTVYLQMNSLKPEETAVYYCAAQIDLPYYYGSDDDDYWGQGTQVTVSS | high polyreactivity |
| QGQLVESGVGLVQAGGSLRLSCAASGLTFSWYAMGWYRQAPGKERELVAVITTSGGSTYYSDSVKGRFTISRDNAKNTVYLQMNSLKPEDTAVYYCAVGVPSWEFDYWGQGTHVTVSS | low polyreactivity |
| QVQLVESGGGLVQSGGSIRLSCAASGSTFDHYTMGWYRQAPGKERELVAAINRIGDSTYYADSVKGRFTISRDNAKNTVYLQMNSLKPEDTAVYDCAARHVPRFNKYGYWGQGTQVNVSS | high polyreactivity |
| QVQLVESGGGLVQAGGSLRLSCAASGNIISNNAMGWYRQAPGKERELVAAIDWSGGRTYYADSVKGRFTISRDNAKNNVYIQMNSLKPEDTAVYYCAAEIPFTYRGVFYEYYYWGQGTQVTLSS | high polyreactivity |
| QVQLVESGGGLVQAGGSLLLSCAASGRTFAPYAMGWYRQAPGKERELVAAISSGGGNTYYADSVKGRFTISRDNAKNTVYLQMNSMKPEDTAVYYCAKPRARQDFDYWGQGTKVTVSS | high polyreactivity |
| QVHHVESGAGLVQAGGSLRLSSAASGRTFGSNTKGCYSQAPGKERELVAAITISGGSTYYADSVKGRFTISRDNAKNTVYLKMNSLKPEDTAVYYCATRLWGHGGGRTTSYMYNWRQGTQVTVSS | high polyreactivity |
| QVQLVESGGGLVQAGGSLRLSCAASGSIFARFAMGWYRQAPGKERELVAAISGRGGSTYYADSVKGRFTISRDNAKNTVYLQMNSLKPEDTAVYYCNAVGHTSIRRALDILDYWGQVTQVTVSS | high polyreactivity |
| QVQLVESGGGLVQAGGSLRLSCAASGSTLGWYVMGWYRQAPGKERELVAAISKSGGRTYYADSVKGRFTISRDNAKNTVYLQMNSLKPEDTAVYYCAAYPPSDFYYEHDYWGQGTQVSVSS | high polyreactivity |
| QVQLVESGGGLVHAGGSLRLSCAASGSTFPGYAMGWYRQAPGKERELVAAISKRGGSTRYADSVKGRFTISRDNANNTVYLQMNSLKPEDTAVYYCAASYSYSGSGGGYWGQGTQVTVSS | high polyreactivity |
| QVQLVESGGGLVQAGGSLRLSCDASGSIYRLNAMGWYRQAPGKEMELVAAITWSDSSTYYADSVKGRFTISRDNAKYTVYLQMNSLKPEDTAVYYCAADPQSYKYDYWGQGTQVTVSS | low polyreactivity |
| QVDLVESGGGLVQAGGSLRLSCAASGRTFQFNGMGWYRQAPVKERELVAGITSGGSTYYADSVKGRFTISRDNAKTTVYLQMISLKPEDTAVYYCAKDDPYFRGSPYFGRYPYGYWGQGTEVTVSS | high polyreactivity |
| QVQLVETGGGLVQAGGSLRLSCAASAFTFASYAMGWYRQAPGKEREFVAAITRSGGSTYYADSVKGRFTISRDNAKNTVYLQMNSLKPEDTAVYYGAAQYHGGISQRLYYWGQGTQVTVSS | high polyreactivity |
| QVQLVESGGGLVQAGGSLRLSCAASGFTFYVYAMGWYRQAPGKERELVASISRGGSTYYADSVKGRFTISRDNAKNTVYLQINSLKPEDTAVYYCNRVPYVSSSKVRYSNGFDYWGQGTQVTVSS | low polyreactivity |
